# Data: PMC3201880 (Nucleic Acids Research, 2011)
# Like-named read-outs stand apart in the source and are kept apart here.
# Key:
# [1] = biological target: T1, TnpA-His6 (IS608 transposase) (Helicobacter pylori (IS608), UniProt Q933Z0 1-155); assay: EMSA
# T1 sequence: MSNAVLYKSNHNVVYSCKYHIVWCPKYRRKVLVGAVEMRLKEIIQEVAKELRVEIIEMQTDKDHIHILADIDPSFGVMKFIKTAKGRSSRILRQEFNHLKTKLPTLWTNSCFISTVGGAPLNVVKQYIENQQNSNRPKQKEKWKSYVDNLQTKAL
# [2] = biological target: T1, TnpA-His6 (IS608 transposase); assay: EMSA; remark: listed apart in the source
# [3] = biological target: the molecule itself; assay: cross-linking
# [4] = biological target: T1, TnpA-His6 (IS608 transposase); assay: EMSA; remark: listed apart in the source
binder,measurement,setting,value
RE56 (ssDNA) DNA: CTCATGCTTTAGCTAGAATCCCCTAGCTTTAGCTATGGGGAGTATGTCAACAAATT,binding result,[1],binds
GCTTTAGCTAGAATCCCCTAGCTTTAGCTATGGGGAGTATGTCAA (ssDNA) [RE45_pc (precleaved)],binding result,[1],binds
GAATCCCCTAGCTTTAGCTATGGGGAGTATGTCAACAAATTTGCC (ssDNA) [RE45],binding result,[1],binds
LE80 (ssDNA) DNA: CGCTAGTGCAAAAATTACCAAAACTAACGCCTTAAAGCCCCTAGCTTTTAGCTATGGGGATACAAGGCGAAACGCCTTTA,binding result,[2],binds
RE70 (ssDNA) DNA: TTCCTCATGCTTTAGCTAGAATCCCCTAGCTTTAGCTATGGGGAGTATGTCAACAAATTTGCCTAATGAC,binding result,[2],binds
"TnpA-His6 (transposase of IS608) (enzyme, Helicobacter pylori, UniProt Q933Z0 1-155, looked up) MSNAVLYKSNHNVVYSCKYHIVWCPKYRRKVLVGAVEMRLKEIIQEVAKELRVEIIEMQTDKDHIHILADIDPSFGVMKFIKTAKGRSSRILRQEFNHLKTKLPTLWTNSCFISTVGGAPLNVVKQYIENQQNSNRPKQKEKWKSYVDNLQTKAL",stoichiometry N,[3],2
GCTTTAGCTAGAATCCCCTAGCTTTAGCTATGGGGAGTATGTCAATTCG (ssDNA) [RE49],binding result,[4],binds
